Assay results published in the nanobody polyreactivity screen of Harvey et al. (2022).

Assay: yeast display, Sf9 membrane polyspecificity reagent, FACS + sequencing; frameworks hold sequencing errors
How it was run: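 Galactose induction of a Saccharomyces cerevisiae BJ5465 synthetic nanobody display library ran 36–48 hours. The cells were then stained for 1 hour at 4 °C with 10% biotinylated, detergent-solubilized Sf9 membrane reagent, pulled down on streptavidin microbeads and FACS-sorted into low and high (top ~1%) gates on expression and reagent-binding fluorescence. Labels for polyreactivity follow the gate of origin.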

Sequence: QVQLVESGGGLVQAGGSLRLSCAASGRIFHWYAMGWYRQAPGKERELVATANTSYADSVKGRFTISRDNAKNTVYLQMNSLKPEDTALYYCATVGPRGRSLGDYWGQGTQVTVSS
- polyreactivity (PSR sort gate): low polyreactivity

Sequence: QVQLVESGGGLVQAGGSLRLSCAASGRIFHYNAMGWYRQAPGKERELVAAISTGGSTNYADSVKGRFTISRDNAKNTVYLQMNSLKPEDTAVYYCNADLYVDPWTYFGYDYWGQGTQVTVSS
- polyreactivity (PSR sort gate): low polyreactivity

Sequence: QVQLVESGGGLVQAGGSLRLSCAASGRIFHYYAMGWYRQAPGKERELVAAINKSGGRTYYADSVKGRFTISRDNAKNTVYLQMNSLKPEDTAVYYCAAQDGYWGQGTQVTVSS
- polyreactivity (PSR sort gate): high polyreactivity

Sequence: QVQLVESGGGLVQAGGSLRLSCAASGRIFHYYAMGWYRQAPGKERELVAAINSAGSTKYADSVKGRFTISRDNAKNTVYLQMNSLKPEDTAVYYCAAERGSRDGGYDYWGQGTQVTVSS
- polyreactivity (PSR sort gate): low polyreactivity

Sequence: QVQLVESGGGLVQAGGSLRLSCAASGRIFHYYAMGWYRQAPGKERELVAAIRWSGGDTYYADSVKGRFTISRDNAKNTVYLQMNSLKPEDTAVYYCAAYEHVYEYDYWGQGTQVTVSS
- polyreactivity (PSR sort gate): low polyreactivity

Sequence: QVQLVESGGGLVQAGGSLRLSCAASGRIFHYYAMGWYRQAPGKERELVAAISWSGGSTYYADSVKGRFTISRDNAKNTVYLQMNSLKPEVTAVYYCNRQFGRRVYISHPGPGYWGQGTQVTVSS
- polyreactivity (PSR sort gate): high polyreactivity

Sequence: QVQLVESGGGLVQAGGSLRLSCAASGRIFHYYAMGWYRQAPGKERELVASISTGGNTYYADSVKGRFTISRDNAKNTVYLQMNSLKPEVTAVYYCAAVTVRKFYKGINYWYEYWGEGTQVTVSS
- polyreactivity (PSR sort gate): high polyreactivity

Sequence: QVQLVESGGGLVQAGGSLRLSCAASGRIFHYYMGWYRQAPGKERELVAVISSGDGTYYADSVKGRFTISRDNAKNTVYLQMNSLKPEDTAVYYCAADAPREYVDHYKYDDDYWGQGTQVNVSS
- polyreactivity (PSR sort gate): low polyreactivity

Sequence: QVQLVESGGGLVQAGGSLRLSCAASGRIFIANTMGWYRQAPGKERELVAAITQRGDSTYYADSVKGRFTISRDNAKNTVYLQMNSLKPEDTAVYYCAARYYLSSYVRYNYWGQGTQVTVSS
- polyreactivity (PSR sort gate): high polyreactivity

Sequence: QVQLVESGGGLVQAGGSLRLSCAASGRIFIAYAMGWYRQAPGKERELVAAITDDGGTNYADSVKGRFTISRDNAKNTVYLQMNSLKPEDTAVYYCAATYLIGYYYVWEYDYWGQGTQVTVSS
- polyreactivity (PSR sort gate): low polyreactivity

Sequence: QVQLVESGGGLVQAGGSLRLSCAASGRIFIGYAMGWYRQAPGKERELVAAISWGGGSTFYADSVKGRFTISRDNAKNTVYLQMNSLKPEDTAVYYCNKVYRQRVVKGGYWGQGTQVTVSS
- polyreactivity (PSR sort gate): high polyreactivity

Sequence: QVQLVESGGGLVQAGGSLRLSCAASGRIFIINAMGWYRQAPGKERELVAAITGTGSTYYADSVKGRFTISRDNAKNTVYLQMNSLKPEDTAVYYCAADVSYTYYGFWYDEYYWGQGTQVTVSS
- polyreactivity (PSR sort gate): high polyreactivity

Sequence: QVQLVESGGGLVQAGGSLRLSCAASGRIFILYGMGWYRQAPGKERELVAAIRWSGASTYYADSVKGRFTISRDNAKNTVYLQMNSLKPEDTAVYYCAATVGFTPSFWYSSKYDYWGQGTQVTVSS
- polyreactivity (PSR sort gate): low polyreactivity

Sequence: QVQLVESGGGLVQAGGSLRLSCAASGRIFINNAMGWYRQAPGKERELVAAISSRGGSTYYADSVKGRFTISRDNAKKTVYLQMNSLKPEDTAVYYCAVDVYEPRYRRPFHHDYWGQGTQVTVSS
- polyreactivity (PSR sort gate): low polyreactivity

Sequence: QVQLVESGGGLVQAGGSLRLSCAASGRIFIPYAMGWYRQAPGKERELVAAISSSGGSTYYADSVKGRFTISRDTAKNTVYLQMNSLKPEDTAVYYCAARLYWGYAYETYSSLFEYDYWGQGTQVTVSS
- polyreactivity (PSR sort gate): low polyreactivity

Sequence: QVQLVESGGGLVQAGGSLRLSCAASGRIFIRNAMGWYRQAPGKERELVAAITQSGGSTYYADSVKGRFSISRVYAKNTVYLQMNSLKPEDTAVYYCNAVRYNCVGYDYWGQGTQVTVSS
- polyreactivity (PSR sort gate): high polyreactivity

Sequence: QVQLVESGGGLVQAGGSLRLSCAASGRIFIRNDMGWYRQAPGKERELVAVITRSGGRTYYADSVKGRFTISRDNAKNTVYLQMHSLKPEDTAVYSCAKRQAFKQAPYEYWGQGTQVTVSS
- polyreactivity (PSR sort gate): low polyreactivity

Sequence: QVQLVESGGGLVQAGGSLRLSCAASGRIFISNAKGWYRQAPGKERELVAAITWIGDRTYYADSVKGRFTISRDNAKNTVYLQMNSLKPEDTAVYYCNRVTSRVSGRYSYDYWGQGTQVTVSS
- polyreactivity (PSR sort gate): high polyreactivity

Sequence: QVQLVESGGGLVQAGGSLRLSCAASGRIFIWYGMGCYRQAPGKERELVADISSTGSTNYADSVKGRFTISRDNAKNTVYLQMNSLKPEDTAVYYCAADPETPYYTTYDYDYWGQGTQVTVSS
- polyreactivity (PSR sort gate): low polyreactivity

Sequence: QVQLVESGGGLVQAGGSLRLSCAASGRIFIYNAKGWYRQAPGKERELVAAITSDGTTNYADSVKGRFTISRDNAKNTVYLQMNSLKPEDTAVYYCAVDPFGSLVTYDYWGQGTQVTVSS
- polyreactivity (PSR sort gate): low polyreactivity

Sequence: QVQLVESGGGLVQAGGSLRLSCAASGRIFIYYAMGWYRQAPGKERELVAAITSGGSTIYADSVKGRFTIPRDNAKNTVYLQMNSLKPEDTAVYDCAARYVRSQTRFDYWGQGTQVTVSS
- polyreactivity (PSR sort gate): high polyreactivity

Sequence: QVQLVESGGGLVQAGGSLRLSCAASGRIFKAYAMGWYRQAPGKERELVAVITGTGRTTYADSVKGRFTISRDNAKNTVYLQMNSLKPEDTAVYYCNVRWYYKGDYWGQGTLVTVSS
- polyreactivity (PSR sort gate): high polyreactivity

Sequence: QVQLVESGGGLVQAGGSLRLSCAASGRIFKCYAMGWYRQAPGKERELVAAISSGGRTYYADSVKGRFTISRDNAKNTVYLQMNSLKPEDTAVYYCAALQRTGPYAGSSGYWGQGSQVTVSS
- polyreactivity (PSR sort gate): high polyreactivity

Sequence: QVQLVESGGGLVQAGGSLRLSCAASGRIFKDNAMGWYRQAPGKERELVATIDSGGDTNYADSVKGRFTISRDNAKNTVYLQMNSLKPEDTAVYYCNRDSRVLEGDYWGQGTQVTVSS
- polyreactivity (PSR sort gate): low polyreactivity

Sequence: QVQLVESGGGLVQAGGSLRLSCAASGRIFKGYAMGWYRQAPGKESELVAAITWRGGTTYYADSVKGRFTISRDNAKNTVYLQMNSLKPEDTAVYYCARARPTGYNYWGQGTQVTVSS
- polyreactivity (PSR sort gate): high polyreactivity

Sequence: QVQLVESGGGLVQAGGSLRLSCAASGRIFKINAMGWYRQAPGKERELVAGISGSGSDTYYSDSVKGRFTISRDNAKNTVYLQMNSLKPEDTAVYYCAAVAYDWALFYYWGQGTQVTVSS
- polyreactivity (PSR sort gate): low polyreactivity

Sequence: QVQLVESGGGLVQAGGSLRLSCAASGRIFKINAMGWYRQAPGKERELVATITRDGRTYYADSVKGRFTISRDNAKNTVYLQMNSLKPEDTAVYYCNVRRAFSGWRGYDYWGQGTQVTVSS
- polyreactivity (PSR sort gate): high polyreactivity

Sequence: QVQLVESGGGLVQAGGSLRLSCAASGRIFKLYAMGWYRQAPGKERELVASITWGGGSTNYADSVKGRFTISRDNAKNTVYLQMNSLKPEDTAVYYCAAVYSKYAVFWEYDYWGQGTQVTVSS
- polyreactivity (PSR sort gate): low polyreactivity

Sequence: QVQLVESGGGLVQAGGSLRLSCAASGRIFKLYAMGWYRQAPGKERELVATIRYSGGSTYYADSVKGRFTISRDNAKNSVYLHMNSLKPEDTAVYYCNYVSRRQYFEYDYWGQGTQVTVSS
- polyreactivity (PSR sort gate): low polyreactivity

Sequence: QVQLVESGGGLVQAGGSLRLSCAASGRIFKLYAMGWYRQAPGKESELVAAITRRGGSTSYADSVKGRFTISRVNAKNTVYLQMNSLKPEDTSVYYCAASLSPWFTSYYLPYDLGYWGQGTQVTVSS
- polyreactivity (PSR sort gate): high polyreactivity

Sequence: QVQLVESGGGLVQAGGSLRLSCAASGRIFKNNTMGWYRQAPGKERELVAAISCSGGSTYYADSVKGRFTISRDNAKNTVYLQINSLKPEDTAVYYCATTYEPNGGIEDDYWGQGTQVTVSS
- polyreactivity (PSR sort gate): low polyreactivity

Sequence: QVQLVESGGGLVQAGGSLRLSCAASGRIFKNYAMGWYRQAPGKERELVAAITWSVGSTYYADSVKGRFTISRDNAKNTVYLQMNSLKPEDTAVYYCAARRSDFRGAKDGYYYWGQGTQVTVSS
- polyreactivity (PSR sort gate): low polyreactivity

Sequence: QVQLVESGGGLVQAGGSLRLSCAASGRIFKPYAMGWYRQAPGKERELVASISRRGGSTYYADSVKGRFTISRDNAKNTVYLQMNSLKPEDTAVYDCNASGTYISLGYDYWGQGTQVTVSS
- polyreactivity (PSR sort gate): high polyreactivity

Sequence: QVQLVESGGGLVQAGGSLRLSCAASGRIFKRNAMGCYRQAPGKERELVATIDWSGGSTYYADSVKGRFTISRDNAKNTVYLQMNSLKPEDTAVYYCAAASGRWNKYGYWGQGTQVTVSS
- polyreactivity (PSR sort gate): low polyreactivity

Sequence: QVQLVESGGGLVQAGGSLRLSCAASGRIFKRNAMGWYRQAPGKERELVAAITGNVGSTYYADSVKGRFTISRDNAKNTVYLQMNSLKPEDTAVYYCAAYVQYSSIVGYGYWGQGTQVTVSS
- polyreactivity (PSR sort gate): high polyreactivity

Sequence: QVQLVESGGGLVQAGGSLRLSCAASGRIFKRNTMGWYRQAPGKEMELVAAITYSGITYYADSVKGRFTISRDNAKNTVYLQMNSLKPEDTAVYYCAKVLYPIGSPRFEFWGQGTQVTVSS
- polyreactivity (PSR sort gate): low polyreactivity

Sequence: QVQLVESGGGLVQAGGSLRLSCAASGRIFKRYVMGWYRKAPGKERELVAAITWRGGTYYADSVKGRFTISRDNAKNTVYLQMNSLKPEDTAVYYCAADTYFSGAGGQAYQYDYWGLGTQVTVSS
- polyreactivity (PSR sort gate): high polyreactivity

Sequence: QVQLVESGGGLVQAGGSLRLSCAASGRIFKSYAMGWYRQAPGIERELVAAIRSGGSTYYADSVKGRFTISRDNAKNTVYLQMNSLKPEYTAVYYCNRVTRTWKVTYHSWGQGTQVTVSS
- polyreactivity (PSR sort gate): high polyreactivity

Sequence: QVQLVESGGGLVQAGGSLRLSCAASGRIFKSYDIGWYRQAPGKEMELVSAISQSGGGTYYADSVKGRFTISRDNAKNTVYLQMNSLKPEDTAVYYCAAYRRVNRYQKIDNYWGQGTQVTVSS
- polyreactivity (PSR sort gate): high polyreactivity

Sequence: QVQLVESGGGLVQAGGSLRLSCAASGRIFKTNAMGWYRQAPGKERELVAAISKRGGRTYYADSVKGRFTISRDNAKNTVYLQMNSLKPEDTAVYYCATRYSGYSLGDYWGQGTQVTVSS
- polyreactivity (PSR sort gate): high polyreactivity

Sequence: QVQLVESGGGLVQAGGSLRLSCAASGRIFKVYTMGWYRQAPGKERELVATITRSGTSTYYADSVKGRFTISRDIAKNTVYLQMNSLKPEDTAVYYCARLVGYKFSYDYWGQGTQVTVSS
- polyreactivity (PSR sort gate): high polyreactivity

Sequence: QVQLVESGGGLVQAGGSLRLSCAASGRIFKYNAMGWYRQAPGKERELVAAISGRGVSTYYADSVKGRFTISRDNAKNPVYLQMNSLKPEDTAVYYCAAETVHGSADFDDWGQGTQVTVSS
- polyreactivity (PSR sort gate): low polyreactivity

Sequence: QVQLVESGGGLVQAGGSLRLSCAASGRIFKYNAMGWYRQAPGKERELVAVITSGGSTNYADSVKGRFTISRDNAKNTVYLQMNSLKPEDTAVYYCNARRYSTYDYWGQGTQVTVSS
- polyreactivity (PSR sort gate): high polyreactivity
